This is an account of results in paper PMC8974011.

One may read the stoichiometry N as the number of molecules, sites or subunits per partner or assembly.

The target of the assay is T1, endogenous STAT1 of HeLa cells (human (endogenous in HeLa)), P42224.
T1 chain: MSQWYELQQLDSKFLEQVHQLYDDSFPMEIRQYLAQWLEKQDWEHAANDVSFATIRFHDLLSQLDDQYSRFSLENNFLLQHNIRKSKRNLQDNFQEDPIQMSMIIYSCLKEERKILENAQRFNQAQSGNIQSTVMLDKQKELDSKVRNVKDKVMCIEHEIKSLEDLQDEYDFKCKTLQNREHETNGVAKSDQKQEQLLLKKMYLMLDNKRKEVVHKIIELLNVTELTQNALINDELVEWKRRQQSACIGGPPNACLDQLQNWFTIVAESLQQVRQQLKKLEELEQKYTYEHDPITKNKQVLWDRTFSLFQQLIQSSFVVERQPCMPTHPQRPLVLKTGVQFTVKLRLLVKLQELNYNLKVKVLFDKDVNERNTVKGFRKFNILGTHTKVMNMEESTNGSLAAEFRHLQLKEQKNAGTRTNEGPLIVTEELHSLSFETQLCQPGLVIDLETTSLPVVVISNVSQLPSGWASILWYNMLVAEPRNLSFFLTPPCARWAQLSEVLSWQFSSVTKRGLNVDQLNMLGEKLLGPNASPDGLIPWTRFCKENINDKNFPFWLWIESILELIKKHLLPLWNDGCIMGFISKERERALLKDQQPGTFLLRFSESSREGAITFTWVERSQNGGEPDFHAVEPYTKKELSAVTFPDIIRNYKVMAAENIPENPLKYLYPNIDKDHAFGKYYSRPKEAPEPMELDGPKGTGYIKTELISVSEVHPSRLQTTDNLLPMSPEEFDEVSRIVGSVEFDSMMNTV
Put plainly: native gel or EMSA; extracts of IFNγ-stimulated HeLa cells incubated with [33P]-labelled 2xGAS duplex DNA (two tandem GAS sites); super-shift with STAT1 antibody; competition with 750-fold molar excess of unlabelled M67 DNA; 4.8% acrylamide gel at 4 °C; only DNA-bound complexes are seen. The following applies: remark: other sources report otherwise. In general terms: In EMSA bound probe runs differently from free probe, usually more slowly.

B1: endogenous STAT1 of HeLa cells, P42224 1-750 (natural protein)
chain: MSQWYELQQLDSKFLEQVHQLYDDSFPMEIRQYLAQWLEKQDWEHAANDVSFATIRFHDLLSQLDDQYSRFSLENNFLLQHNIRKSKRNLQDNFQEDPIQMSMIIYSCLKEERKILENAQRFNQAQSGNIQSTVMLDKQKELDSKVRNVKDKVMCIEHEIKSLEDLQDEYDFKCKTLQNREHETNGVAKSDQKQEQLLLKKMYLMLDNKRKEVVHKIIELLNVTELTQNALINDELVEWKRRQQSACIGGPPNACLDQLQNWFTIVAESLQQVRQQLKKLEELEQKYTYEHDPITKNKQVLWDRTFSLFQQLIQSSFVVERQPCMPTHPQRPLVLKTGVQFTVKLRLLVKLQELNYNLKVKVLFDKDVNERNTVKGFRKFNILGTHTKVMNMEESTNGSLAAEFRHLQLKEQKNAGTRTNEGPLIVTEELHSLSFETQLCQPGLVIDLETTSLPVVVISNVSQLPSGWASILWYNMLVAEPRNLSFFLTPPCARWAQLSEVLSWQFSSVTKRGLNVDQLNMLGEKLLGPNASPDGLIPWTRFCKENINDKNFPFWLWIESILELIKKHLLPLWNDGCIMGFISKERERALLKDQQPGTFLLRFSESSREGAITFTWVERSQNGGEPDFHAVEPYTKKELSAVTFPDIIRNYKVMAAENIPENPLKYLYPNIDKDHAFGKYYSRPKEAPEPMELDGPKGTGYIKTELISVSEVHPSRLQTTDNLLPMSPEEFDEVSRIVGSVEFDSMMNTV
modifications: here or on the partner: phospho-tyrosine 701 (P-STAT1, IFNγ-stimulated cells); phospho-tyrosine 701 (P-STAT1, IFNγ-stimulated cells)
As for B1, the stoichiometry N worked out at 4.
